# Test results: paper PMC10716038, “Talin and kindlin use integrin tail allostery and direct binding to activate integrins” (Nature Structural & Molecular Biology, 2023)
# No end group written: not given here.
# T1: TLN1-F3–ΔKIND2 fusion protein
# T1 chain: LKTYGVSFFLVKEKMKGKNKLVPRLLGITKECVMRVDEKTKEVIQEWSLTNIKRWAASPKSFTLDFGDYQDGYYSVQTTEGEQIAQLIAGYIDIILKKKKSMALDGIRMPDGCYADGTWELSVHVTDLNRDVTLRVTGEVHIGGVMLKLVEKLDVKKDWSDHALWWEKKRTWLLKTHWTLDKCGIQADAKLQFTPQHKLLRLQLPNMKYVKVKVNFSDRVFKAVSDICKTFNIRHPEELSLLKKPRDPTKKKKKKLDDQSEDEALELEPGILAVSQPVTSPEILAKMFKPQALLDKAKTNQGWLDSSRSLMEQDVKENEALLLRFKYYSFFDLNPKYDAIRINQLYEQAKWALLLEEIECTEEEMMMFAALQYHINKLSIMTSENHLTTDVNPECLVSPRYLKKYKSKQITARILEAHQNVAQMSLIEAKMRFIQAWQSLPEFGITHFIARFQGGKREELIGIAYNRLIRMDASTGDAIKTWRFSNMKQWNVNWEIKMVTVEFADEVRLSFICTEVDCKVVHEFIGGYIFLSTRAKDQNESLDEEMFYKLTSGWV
# T2: α5-TM lacking the cytoplasmic domain (tailless α5-TM) in nanodiscs (UniProt P11688 993-1025, biotin (biotin-maleimide))
# T2 chain: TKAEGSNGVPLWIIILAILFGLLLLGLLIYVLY
# T3: β1 transmembrane and cytoplasmic tail polypeptide (β1-TM–CT) in nanodiscs (UniProt P05556 726-798, biotin (biotin-maleimide))
# T3 chain: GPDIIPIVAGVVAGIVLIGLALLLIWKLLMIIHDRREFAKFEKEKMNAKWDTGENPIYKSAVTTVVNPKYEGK
# T4: β3 transmembrane and cytoplasmic tail polypeptide (β3-TM–CT) in nanodiscs (UniProt O54890 715-787, biotin (biotin-maleimide))
# T4 chain: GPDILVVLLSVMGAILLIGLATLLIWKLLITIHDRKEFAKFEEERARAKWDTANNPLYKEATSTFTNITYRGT
# B1: kindlin-2 (KIND2) (natural protein)
# chain: MALDGIRMPDGCYADGTWELSVHVTDLNRDVTLRVTGEVHIGGVMLKLVEKLDVKKDWSDHALWWEKKRTWLLKTHWTLDKCGIQADAKLQFTPQHKLLRLQLPNMKYVKVKVNFSDRVFKAVSDICKTFNIRHPEELSLLKKPRDPTKKKKKKLDDQSEDEALELEGPLIMPGSGSIYSSPGLYSKTMTPTYDAHDGSPLSPTSAWFGDSALSEGNPGILAVSQPVTSPEILAKMFKPQALLDKAKTNQGWLDSSRSLMEQDVKENEALLLRFKYYSFFDLNPKYDAIRINQLYEQAKWALLLEEIECTEEEMMMFAALQYHINKLSIMTSENHLNNSDKEVDEVDAALSDLEITLEGGKTSTILGDITSIPELADYIKVFKPKKLTLKGYKQYWCTFKDTSISCYKSREESSGTPAHQLNLRGCEVTPDVNISGQKFNIKLLIPVAEGMNEIWLRCDNEKQYAHWMAACRLASKGKTMADSSYNLEVQNILSFLKMQHLNPDPQLIPDQITTDVNPECLVSPRYLKKYKSKQITARILEAHQNVAQMSLIEAKMRFIQAWQSLPEFGITHFIARFQGGKREELIGIAYNRLIRMDASTGDAIKTWRFSNMKQWNVNWEIKMVTVEFADEVRLSFICTEVDCKVVHEFIGGYIFLSTRAKDQNESLDEEMFYKLTSGWV
# How the values were obtained:
# [1] = target: T1, TLN1-F3–ΔKIND2 fusion protein; experiment: MST
# [2] = target: B1; experiment: MST
# [3] = target: T5, β1-TM–CT Y783A (THD1-binding impaired) in nanodiscs (UniProt P09055 726-798, Y783A, biotin (biotin-maleimide)); experiment: FACS; 10% PIP3 nanodiscs
# [4] = target: T6, β1-TM–CT Y795A (KIND2-binding impaired) in nanodiscs (UniProt P09055 726-798, Y795A, biotin (biotin-maleimide)); experiment: FACS; 10% PIP3 nanodiscs
# [5] = target: T2, α5-TM lacking the cytoplasmic domain …; experiment: FACS; 10% PIP3 nanodiscs
# [6] = target: T3, β1 transmembrane and cytoplasmic tail …; experiment: FACS; 10% PIP3 nanodiscs
# [7] = target: T5, β1-TM–CT Y783A (THD1-binding impaired) …; experiment: FACS; 10% PIP2 nanodiscs
# [8] = target: T6, β1-TM–CT Y795A (KIND2-binding impaired) …; experiment: FACS; 10% PIP2 nanodiscs
# [9] = target: T2, α5-TM lacking the cytoplasmic domain …; experiment: FACS; 10% PIP2 nanodiscs
# [10] = target: T3, β1 transmembrane and cytoplasmic tail …; experiment: FACS; 10% PIP2 nanodiscs
# [11] = target: T4, β3 transmembrane and cytoplasmic tail …; experiment: FACS; 10% PIP2 nanodiscs
Kd [1],Kd [2],IC50 [3],IC50 [4],IC50 [5],IC50 [6],IC50 [7],IC50 [8],IC50 [9],IC50 [10],IC50 [11],Binder
4300 nM,4900 nM,–,–,–,–,–,–,–,–,–,{ATTO 488}-KLLMIIHDRREFAKFEKEKMNAKWDTGENPIAKSAVTTVVNPKYEGK [ATTO 488-labelled β1-CT^Y783A]
–,–,255 nM,162 nM,471 nM,102 nM,117 nM,370 nM,444 nM,120 nM,95 nM,B1
